The values below come from patent US20250361299A1 (published 2025).

For test [1], the target named is T1, Recombinant human EGFR (human, UniProt P00533 25-645). Nature of the test: ELISA.
The target in test [2] is T2, Human CD3 protein (human, UniProt P07766 23-126).
T2 chain: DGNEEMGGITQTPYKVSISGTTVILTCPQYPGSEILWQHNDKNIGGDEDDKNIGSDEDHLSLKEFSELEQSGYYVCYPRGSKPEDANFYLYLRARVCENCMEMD
Briefly: ELISA. (An ELISA detects its analyte on a solid surface through an enzyme-linked reagent.)

The target of test [3] is T1, Recombinant human EGFR. Nature of the test: ELISA; without uPA.
Test [4] has as its target T2, Human CD3 protein. Briefly: ELISA; without uPA.
In test [5] the target is T1, Recombinant human EGFR. Briefly: ELISA. The source holds these as a separate data set.
Test [6] addresses T2, Human CD3 protein. Briefly: ELISA.
The target of test [7] is T1, Recombinant human EGFR. Briefly: ELISA. This is another data set of the same source.
The target of test [8] is T2, Human CD3 protein. Briefly: ELISA.
For test [9], the target named is T1, Recombinant human EGFR. Briefly: ELISA; with uPA.
For test [10], the target named is T2, Human CD3 protein. Nature of the test: ELISA; with uPA.
In test [11] the target is T1, Recombinant human EGFR. Briefly: ELISA; without uPA. This is another data set of the same source.
For test [12], the target named is T2, Human CD3 protein. Nature of the test: ELISA; without uPA.

B1: 1.4.3M-Pa-Noncleavable (antibody)
chain 1: QDGNEEMGGIGGGSQDGNEEMGGGGGSGGGSGGSEVQLVESGGGLVQPGGSLRLSCAASGFTFNTYAMNWVRQAPGKGLEWVARIRSKYNNYATYYADSVKGRFTISRDDSKNTLYLQMNSLRAEDTAVYYCARHGNFGSSYVSYFAYWGQGTTVTVSSGGGSSGGGGSGGGGSQVQLQESGPGLVKPSETLSLTCTVSGGSVSSGDYYWTWIRQSPGKGLEWIGHIYYSGNTNYNPSLKSRLTISIDTSKTQFSLKLSSVTAADTAIYYCVRDRVTGAFDIWGQGTMVTVSSASTKGPSVFPLAPSSKSTSGGTAALGCLVKDYFPEPVTVSWNSGALTSGVHTFPAVLQSSGLYSLSSVVTVPSSSLGTQTYICNVNHKPSNTKVDKKVEPKSCPPCPAPEAAGGPSVFLFPPKPKDTLMISRTPEVTCVVVDVSHEDPEVKFNWYVDGVEVHNAKTKPREEQYNSTYRVVSVLTVLHQDWLNGKEYKCKVSNKALPAPIEKTISKAKGQPREPQVYTLPPSRDELTKNQVSLLCLVKGFYPSDIAVEWESNGQPENNYKTTPPVLDSDGSFFLHSKLTVDKSRWQQGNVFSCSVMHEALHNHYTQKSLSLSPGK
chain 2: not shown
One may read the EC50 as the concentration at which the effect is half-maximal. Turning to B1, the EC50 came out at 0.255 µg/mL with Recombinant human EGFR [1] and 7.43 µg/mL in the test with Human CD3 protein [2].

B2: 1.6.1M-Pa proBiTE (bispecific antibody)
heavy: QDGNEEMGGGSQDGNEEMGGIGGGSGGGGSGLSGRSDNHGGGGSEVQLVESGGGLVQPGGSLRLSCAASGFTFNTYAMNWVRQAPGKGLEWVARIRSKYNNYATYYADSVKGRFTISRDDSKNTLYLQMNSLRAEDTAVYYCARHGNFGSSYVSYFAYWGQGTTVTVSSASTKGPSVFPLAPSSKSTSGGTAALGCLVKDYFPEPVTVSWNSGALTSGVHTFPAVLQSSGLYSLSSVVTVPSSSLGTQTYICNVNHKPSNTKVDKKVEPKSCPPCPAPEAAGAPSVFLFPPKPKDTLMISRTPEVTCVVVDVSHEDPEVKFNWYVDGVEVHNAKTKPREEQYNSTYRVVSVLTVLHQDWLNGKEYKCKVSNKALPAPIEKTISKAKGQPREPQVYTLPPSRDELTKNQVSLLCLVKGFYPSDIAVEWESNGQPENNYKTTPPVLDSDGSFFLHSKLTVDKSRWQQGNVFSCSVMHEALHNHYTQKSLSLSPGK
light: QVQLQESGPGLVKPSETLSLTCTVSGGSVSSGDYYWTWIRQSPGKGLEWIGHIYYSGNTNYNPSLKSRLTISIDTSKTQFSLKLSSVTAADTAIYYCVRDRVTGAFDIWGQGTMVTVSSGGGGSGGGGSGGGGSGGGGSDIQMTQSPSSLSASVGDRVTITCQASQDISNYLNWYQQKPGKAPKLLIYDASNLETGVPSRFSGSGSGTDFTFTISSLQPEDIATYFCQHFDHLPLAFGGGTKVEIKGGGGSGGGGSGGGGSGGGGSEIVVTQSPATLSVSPGERATLSCRSSTGAVTTSNYANWVQQKPGQAPRGLIGGANKRAPGVPARFSGSLSGDEATLTISSLQSEDFAVYYCALWYSNLWVFGQGTKLEIKRTVAAPSVFIFPPSDEQLKSGTASVVCLLNNFYPREAKVQWKVDNALQSGNSQESVTEQDSKDSTYSLSSTLTLSKADYEKHKVYACEVTHQGLSSPVTKSFNRGECPPCPAPEAAGAPSVFLFPPKPKDTLMISRTPEVTCVVVDVSHEDPEVKFNWYVDGVEVHNAKTKPREEQYNSTYRVVSVLTVLHQDWLNGKEYKCKVSNKALPAPIEKTISKAKGQPREPQVYTLPPSRDELTKNQVSLLCLVKGFYPSDIAVEWESNGQPENNYKTTPPVLDSDGSFFLHSKLTVDKSRWQQGNVFSCSVMHEALHNHYTQKSLSLSPGK
On to B2, for which the EC50 was 0.0154 µg/mL with Recombinant human EGFR [3] and 47.2 µg/mL with Human CD3 protein [4].

B3: 1.6.1M-Pa-Unmask iBiTE (bispecific antibody)
heavy: EVQLVESGGGLVQPGGSLRLSCAASGFTFNTYAMNWVRQAPGKGLEWVARIRSKYNNYATYYADSVKGRFTISRDDSKNTLYLQMNSLRAEDTAVYYCARHGNFGSSYVSYFAYWGQGTTVTVSSASTKGPSVFPLAPSSKSTSGGTAALGCLVKDYFPEPVTVSWNSGALTSGVHTFPAVLQSSGLYSLSSVVTVPSSSLGTQTYICNVNHKPSNTKVDKKVEPKSCPPCPAPEAAGAPSVFLFPPKPKDTLMISRTPEVTCVVVDVSHEDPEVKFNWYVDGVEVHNAKTKPREEQYNSTYRVVSVLTVLHQDWLNGKEYKCKVSNKALPAPIEKTISKAKGQPREPQVYTLPPSRDELTKNQVSLLCLVKGFYPSDIAVEWESNGQPENNYKTTPPVLDSDGSFFLHSKLTVDKSRWQQGNVFSCSVMHEALHNHYTQKSLSLSPGK
light: B2 light
With B3, the values for the EC50 with Recombinant human EGFR [5] and with Human CD3 protein [6] were 0.0106 µg/mL and 0.462 µg/mL, respectively.

B4: 1.6.1M-Pa-Noncleavable BiTE (bispecific antibody)
heavy: QDGNEEMGGGSQDGNEEMGGIGGGSGGGGSGLSGAGNHGGGGSEVQLVESGGGLVQPGGSLRLSCAASGFTFNTYAMNWVRQAPGKGLEWVARIRSKYNNYATYYADSVKGRFTISRDDSKNTLYLQMNSLRAEDTAVYYCARHGNFGSSYVSYFAYWGQGTTVTVSSASTKGPSVFPLAPSSKSTSGGTAALGCLVKDYFPEPVTVSWNSGALTSGVHTFPAVLQSSGLYSLSSVVTVPSSSLGTQTYICNVNHKPSNTKVDKKVEPKSCPPCPAPEAAGAPSVFLFPPKPKDTLMISRTPEVTCVVVDVSHEDPEVKFNWYVDGVEVHNAKTKPREEQYNSTYRVVSVLTVLHQDWLNGKEYKCKVSNKALPAPIEKTISKAKGQPREPQVYTLPPSRDELTKNQVSLLCLVKGFYPSDIAVEWESNGQPENNYKTTPPVLDSDGSFFLHSKLTVDKSRWQQGNVFSCSVMHEALHNHYTQKSLSLSPGK
light: B2 light
For B4, the EC50 was 0.027 µg/mL with Recombinant human EGFR [5] and approximately 99500 µg/mL in the test with Human CD3 protein [6].

B5: 1.6.1M-Pa-CTR (antibody)
chain 1: B3 heavy
chain 2: B2 light
As to B5, the figures for the EC50 in the test with Recombinant human EGFR [7] and with Human CD3 protein [8] were 0.0264 µg/mL and 0.613 µg/mL, respectively.

B6: 1.6.1M-Pa proBiTE after uPA digestion (bispecific antibody)
heavy: SDNHGGGGSEVQLVESGGGLVQPGGSLRLSCAASGFTFNTYAMNWVRQAPGKGLEWVARIRSKYNNYATYYADSVKGRFTISRDDSKNTLYLQMNSLRAEDTAVYYCARHGNFGSSYVSYFAYWGQGTTVTVSSASTKGPSVFPLAPSSKSTSGGTAALGCLVKDYFPEPVTVSWNSGALTSGVHTFPAVLQSSGLYSLSSVVTVPSSSLGTQTYICNVNHKPSNTKVDKKVEPKSCPPCPAPEAAGAPSVFLFPPKPKDTLMISRTPEVTCVVVDVSHEDPEVKFNWYVDGVEVHNAKTKPREEQYNSTYRVVSVLTVLHQDWLNGKEYKCKVSNKALPAPIEKTISKAKGQPREPQVYTLPPSRDELTKNQVSLLCLVKGFYPSDIAVEWESNGQPENNYKTTPPVLDSDGSFFLHSKLTVDKSRWQQGNVFSCSVMHEALHNHYTQKSLSLSPGK
light: B2 light
With B6, the half-maximal effective concentration (EC50) was found to be 0.0186 µg/mL with Recombinant human EGFR [9] and 0.67 µg/mL with Human CD3 protein [10].

B7: 1.4.3M-Pa proBiTE (bispecific antibody)
heavy: QDGNEEMGGIGGGSQDGNEEMGGGGGSGGGSGLSGRSDNHGGSEVQLVESGGGLVQPGGSLRLSCAASGFTFNTYAMNWVRQAPGKGLEWVARIRSKYNNYATYYADSVKGRFTISRDDSKNTLYLQMNSLRAEDTAVYYCARHGNFGSSYVSYFAYWGQGTTVTVSSGGGSSGGGGSGGGGSQVQLQESGPGLVKPSETLSLTCTVSGGSVSSGDYYWTWIRQSPGKGLEWIGHIYYSGNTNYNPSLKSRLTISIDTSKTQFSLKLSSVTAADTAIYYCVRDRVTGAFDIWGQGTMVTVSSASTKGPSVFPLAPSSKSTSGGTAALGCLVKDYFPEPVTVSWNSGALTSGVHTFPAVLQSSGLYSLSSVVTVPSSSLGTQTYICNVNHKPSNTKVDKKVEPKSCPPCPAPEAAGGPSVFLFPPKPKDTLMISRTPEVTCVVVDVSHEDPEVKFNWYVDGVEVHNAKTKPREEQYNSTYRVVSVLTVLHQDWLNGKEYKCKVSNKALPAPIEKTISKAKGQPREPQVYTLPPSRDELTKNQVSLLCLVKGFYPSDIAVEWESNGQPENNYKTTPPVLDSDGSFFLHSKLTVDKSRWQQGNVFSCSVMHEALHNHYTQKSLSLSPGK
light: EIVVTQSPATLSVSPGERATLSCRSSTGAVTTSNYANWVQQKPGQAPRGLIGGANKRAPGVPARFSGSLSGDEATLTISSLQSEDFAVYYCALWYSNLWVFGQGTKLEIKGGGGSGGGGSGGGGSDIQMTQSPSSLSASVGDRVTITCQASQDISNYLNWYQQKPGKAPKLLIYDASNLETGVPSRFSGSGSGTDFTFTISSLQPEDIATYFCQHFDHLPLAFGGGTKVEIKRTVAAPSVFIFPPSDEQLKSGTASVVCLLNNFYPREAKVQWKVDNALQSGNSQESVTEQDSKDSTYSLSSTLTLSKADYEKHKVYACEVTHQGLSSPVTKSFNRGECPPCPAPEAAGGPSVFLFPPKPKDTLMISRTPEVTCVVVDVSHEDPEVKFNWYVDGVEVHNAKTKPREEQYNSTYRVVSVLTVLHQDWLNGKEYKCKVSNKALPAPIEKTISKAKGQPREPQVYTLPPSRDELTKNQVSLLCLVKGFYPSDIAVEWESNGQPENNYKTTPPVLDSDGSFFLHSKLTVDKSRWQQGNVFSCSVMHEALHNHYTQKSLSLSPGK
For the molecule B7, the values for the 50% effective concentration (EC50) with Recombinant human EGFR [11] and with Human CD3 protein [12] were 0.244 µg/mL and 6.57 µg/mL, respectively.
